# In PMC5727232, “Structural basis for genome wide recognition of 5-bp GC motifs by SMAD transcription factors”:
# T1: Trichoplax Smad4 MH1 domain (Trichoplax adhaerens, UniProt B3S7S5 1-151)
# T1 sequence: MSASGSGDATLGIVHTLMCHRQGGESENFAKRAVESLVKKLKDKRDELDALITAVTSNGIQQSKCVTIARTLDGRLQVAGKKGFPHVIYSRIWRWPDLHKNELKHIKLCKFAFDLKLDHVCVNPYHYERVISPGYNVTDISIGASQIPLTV
# Assays:
# Smad3 MH1 domain [1] = target: T2, Smad3 MH1 domain (Homo sapiens, UniProt P84022 1-141); assay: EMSA; EMSA: 20 mM Tris pH 7.2, 80 mM NaCl, 2 mM DTT, 7.5 nM Cy5-DNA, 30 min room temperature, gel at 20 C; ITC: Tris pH 7.0, 20 C; conditions: protein: recombinant; tags: N-terminal His-TEV, cleaved; label: 5' Cy5; blunt
# Smad4 MH1 domain [2] = target: T3, Smad4 MH1 domain (Homo sapiens, UniProt Q13485 10-140); assay: as above; conditions: protein: recombinant; tags: N-terminal His, cleaved (TEV or 3C); label: 5' Cy5; blunt
# Smad4 MH1 domain [3] = target: T3, Smad4 MH1 domain; assay: X-ray crystallography (2.05 A); Zn2+; EMSA: 20 mM Tris pH 7.2, 80 mM NaCl, 2 mM DTT, 7.5 nM Cy5-DNA, 30 min room temperature, gel at 20 C; ITC: Tris pH 7.0, 20 C; conditions: protein: recombinant; tags: N-terminal His, cleaved (TEV or 3C); blunt, self-complementary
# Smad4 MH1 domain [4] = target: T3, Smad4 MH1 domain; assay: ITC; EMSA: 20 mM Tris pH 7.2, 80 mM NaCl, 2 mM DTT, 7.5 nM Cy5-DNA, 30 min room temperature, gel at 20 C; ITC: Tris pH 7.0, 20 C; conditions: protein: recombinant, tags: N-terminal His, cleaved (TEV or 3C), blunt
# Smad4 MH1 domain [5] = target: T3, Smad4 MH1 domain; assay: EMSA; no nanomolar binding; EMSA: 20 mM Tris pH 7.2, 80 mM NaCl, 2 mM DTT, 7.5 nM Cy5-DNA, 30 min room temperature, gel at 20 C; ITC: Tris pH 7.0, 20 C; conditions: protein: recombinant; tags: N-terminal His, cleaved (TEV or 3C); label: 5' Cy5; blunt
# Smad4 MH1 domain [6] = target: T3, Smad4 MH1 domain; assay: NMR; 1 equivalent DNA; pH 6.3, 100 mM NaCl, 298 K; EMSA: 20 mM Tris pH 7.2, 80 mM NaCl, 2 mM DTT, 7.5 nM Cy5-DNA, 30 min room temperature, gel at 20 C; ITC: Tris pH 7.0, 20 C; conditions: protein: recombinant; tags: N-terminal His, cleaved (TEV or 3C); blunt
# Smad4 MH1 domain [7] = target: T3, Smad4 MH1 domain; assay: NMR; pH 6.3, 100 mM NaCl, 298 K; EMSA: 20 mM Tris pH 7.2, 80 mM NaCl, 2 mM DTT, 7.5 nM Cy5-DNA, 30 min room temperature, gel at 20 C; ITC: Tris pH 7.0, 20 C; conditions: protein: recombinant; tags: N-terminal His, cleaved (TEV or 3C); blunt
# Smad3 MH1 domain [8] = target: T2, Smad3 MH1 domain; assay: EMSA; text says GC1 oligonucleotide; EMSA: 20 mM Tris pH 7.2, 80 mM NaCl, 2 mM DTT, 7.5 nM Cy5-DNA, 30 min room temperature, gel at 20 C; ITC: Tris pH 7.0, 20 C; conditions: protein: recombinant; tags: N-terminal His-TEV, cleaved; label: 5' Cy5; blunt
# [9] = target: T1, Trichoplax Smad4 MH1 domain; assay: EMSA; EMSA: 20 mM Tris pH 7.2, 80 mM NaCl, 2 mM DTT, 7.5 nM Cy5-DNA, 30 min room temperature, gel at 20 C; ITC: Tris pH 7.0, 20 C; conditions: protein: recombinant; tags: N-terminal His-TEV, cleaved; label: 5' Cy5; blunt
# Smad4 MH1 domain [10] = target: T3, Smad4 MH1 domain; assay: X-ray crystallography (3.03 A); Zn2+; EMSA: 20 mM Tris pH 7.2, 80 mM NaCl, 2 mM DTT, 7.5 nM Cy5-DNA, 30 min room temperature, gel at 20 C; ITC: Tris pH 7.0, 20 C; conditions: protein: recombinant; tags: N-terminal His, cleaved (TEV or 3C); blunt, self-complementary
# T3 sequence (Q13485 10-140): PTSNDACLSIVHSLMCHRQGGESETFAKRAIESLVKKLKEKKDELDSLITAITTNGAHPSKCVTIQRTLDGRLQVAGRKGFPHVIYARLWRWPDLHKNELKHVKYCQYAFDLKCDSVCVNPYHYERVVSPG
# T2 sequence (P84022 1-141): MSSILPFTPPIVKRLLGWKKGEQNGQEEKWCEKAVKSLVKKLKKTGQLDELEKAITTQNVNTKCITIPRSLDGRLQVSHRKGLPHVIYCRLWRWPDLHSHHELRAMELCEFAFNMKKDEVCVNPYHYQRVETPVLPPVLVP
binder,measurement,setting,value
-GGCTGCC- (dsDNA) DNA 1: GTAACCGGCTGCCGAATG DNA 2: CATTCGGCAGCCGGTTAC,binding result,Smad3 MH1 domain [1],binds
same,binding result,Smad4 MH1 domain [2],binds
GGCGC-XRAY-Smad4 18mer (dsDNA) DNA 1: ATGCGGGCGCGCCCGCAT DNA 2: ATGCGGGCGCGCCCGCAT,binding result,Smad4 MH1 domain [3],binds
GGCT 16mer (dsDNA) DNA 1: TGCAGGCTAGCCTGCA DNA 2: TGCAGGCTAGCCTGCA,Kd,Smad4 MH1 domain [4]; self-complementary,250.5 ± 0.8 nM
FoxH1 site (dsDNA) DNA 1: TCTCAATCCACAATC DNA 2: GATTGTGGATTGAGA,binding result,Smad4 MH1 domain [5],no binding
CAGAC (ITC) (dsDNA) DNA 1: AGTCAGACGCT DNA 2: AGCGTCTGACT,Kd,Smad4 MH1 domain [4],270.5 ± 0.1 nM
SBE / GTCT (dsDNA) DNA 1: TGCAGTCTAGACTGCA DNA 2: TGCAGTCTAGACTGCA,Kd,"Smad4 MH1 domain [4]; label: 5' Cy5 in EMSA, self-complementary",200.3 ± 0.5 nM
NMR GGCCGCGCC duplex (dsDNA) DNA 1: AGGCCGCGCCGA DNA 2: TCGGCGCGGCCT,binding result,Smad4 MH1 domain [6],binds
NMR GGCTGCC duplex (dsDNA) DNA 1: AGCCGGCTGCC DNA 2: GGCAGCCGGCT,binding result,Smad4 MH1 domain [7],binds
-GGCCGG- (dsDNA) DNA 1: ATTATTGGCCGGAAAGCA DNA 2: TGCTTTCCGGCCAATAAT,binding result,Smad4 MH1 domain [2],binds
-GGCCGC- (dsDNA) DNA 1: ATTAGGCCGCAAAAAAAGCA DNA 2: TGCTTTTTTTGCGGCCTAAT,binding result,Smad4 MH1 domain [2],binds
GC1 core (dsDNA) DNA 1: TTAAGGCCGGGGCCGCGCCGGGAATT DNA 2: AATTCCCGGCGCGGCCCCGGCCTTAA,Kd,Smad3 MH1 domain [8],~100 nM
same,binding result,[9],binds
GC2_14 (CCTGGGC) (dsDNA) DNA 1: AACCTGGGCAATTA DNA 2: TAATTGCCCAGGTT,binding result,Smad4 MH1 domain [5],no binding
GGCCG-XRAY (dsDNA) DNA 1: ACGGGCCGCGGCCCGT DNA 2: ACGGGCCGCGGCCCGT,binding result,Smad4 MH1 domain [10],binds
